Patent US20220298229A1 (ICHOR BIOLOGICS, published 2022)

Target: T1, Vesicular Stomatitis Virus Glycoprotein (VSV-G) (Vesicular Stomatitis Virus, UniProt P03522 17-511)
T1 construct: whole, on cells
Test: flow cytometry, VSV-G-transfected 293T cells (FIG. 4C)

T1 sequence (P03522 17-511): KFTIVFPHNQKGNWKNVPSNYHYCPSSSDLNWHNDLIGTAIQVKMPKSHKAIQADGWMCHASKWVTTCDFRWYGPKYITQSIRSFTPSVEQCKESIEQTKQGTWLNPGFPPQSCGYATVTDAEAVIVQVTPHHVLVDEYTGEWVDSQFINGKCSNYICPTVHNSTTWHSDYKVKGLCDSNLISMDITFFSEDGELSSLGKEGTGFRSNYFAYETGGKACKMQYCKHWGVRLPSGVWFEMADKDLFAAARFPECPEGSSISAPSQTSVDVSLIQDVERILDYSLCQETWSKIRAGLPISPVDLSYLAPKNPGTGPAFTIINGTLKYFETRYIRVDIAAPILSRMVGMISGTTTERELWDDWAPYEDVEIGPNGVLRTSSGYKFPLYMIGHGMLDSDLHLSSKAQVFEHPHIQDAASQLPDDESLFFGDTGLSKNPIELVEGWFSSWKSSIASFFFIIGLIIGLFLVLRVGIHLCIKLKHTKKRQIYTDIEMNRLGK

B1: monoclonal antibody MIB22 (antibody, V domains shown)
VH: EVQLVQSGAELKKPGSSVKVSCKASGGTFVGYGVSWVRQVPGHGPEWMGGFSPISNTANYAERFQGRVTMIVDGSTSTAYMELRSLRSEDTAIYYCARSCDFWNAYYNNWFDPWGQGTLVTVSS
VL: AQSALTQPASVSGSPGQSITISCTGTSSDFADYNSVSWYQQHPGKAPKLLIFDVNDRPSGVSHRFSGSKSGNTASLTISGLQAEDESDYYCTSYTICNSYVFGTGTKVTVLG
notes: also called MIB22 IgG; first antibody
  binding result: no binding (tested: 1 to 15 µg/ml)
